Assay results as given in patent US20210388087A1.

B1: dBBDu183H A100fT / dBBDu072L (antibody, name in Kabat numbering, V domains shown)
VH: QVQLVESGGGLVQPGRSLRLSCAASGFTFSNAWMHWVRQAPGKGLEWVAQIKDKGNAYAAYYAPSVKGRFTISRDDSKNSIYLQMNSLKTEDTAVYYCHYVHYASASTVLPTFGVDAWGQGTTVTVSS
VL: DIVMTQSPLSLPVTPGEPASISCQASQELVHMNRNTYLHWYQQKPGQAPRLLIYKVSNRFPGVPDRFSGSGSGTDFTLKISRVEAEDVGVYYCAQGTSVPFTFGQGTKLEIK
B2: dBBDu183H G100hT / dBBDu072L (antibody, name in Kabat numbering, V domains shown)
VH: QVQLVESGGGLVQPGRSLRLSCAASGFTFSNAWMHWVRQAPGKGLEWVAQIKDKGNAYAAYYAPSVKGRFTISRDDSKNSIYLQMNSLKTEDTAVYYCHYVHYASASTVLPAFTVDAWGQGTTVTVSS
VL: DIVMTQSPLSLPVTPGEPASISCQASQELVHMNRNTYLHWYQQKPGQAPRLLIYKVSNRFPGVPDRFSGSGSGTDFTLKISRVEAEDVGVYYCAQGTSVPFTFGQGTKLEIK
B3: dBBDu183H A102T / dBBDu072L (antibody, name in Kabat numbering, V domains shown)
VH: QVQLVESGGGLVQPGRSLRLSCAASGFTFSNAWMHWVRQAPGKGLEWVAQIKDKGNAYAAYYAPSVKGRFTISRDDSKNSIYLQMNSLKTEDTAVYYCHYVHYASASTVLPAFGVDTWGQGTTVTVSS
VL: DIVMTQSPLSLPVTPGEPASISCQASQELVHMNRNTYLHWYQQKPGQAPRLLIYKVSNRFPGVPDRFSGSGSGTDFTLKISRVEAEDVGVYYCAQGTSVPFTFGQGTKLEIK
B4: dBBDu183H H93D / dBBDu072L (antibody, name in Kabat numbering, V domains shown)
VH: QVQLVESGGGLVQPGRSLRLSCAASGFTFSNAWMHWVRQAPGKGLEWVAQIKDKGNAYAAYYAPSVKGRFTISRDDSKNSIYLQMNSLKTEDTAVYYCDYVHYASASTVLPAFGVDAWGQGTTVTVSS
VL: DIVMTQSPLSLPVTPGEPASISCQASQELVHMNRNTYLHWYQQKPGQAPRLLIYKVSNRFPGVPDRFSGSGSGTDFTLKISRVEAEDVGVYYCAQGTSVPFTFGQGTKLEIK
B5: dBBDu183H V95D / dBBDu072L (antibody, name in Kabat numbering, V domains shown)
VH: QVQLVESGGGLVQPGRSLRLSCAASGFTFSNAWMHWVRQAPGKGLEWVAQIKDKGNAYAAYYAPSVKGRFTISRDDSKNSIYLQMNSLKTEDTAVYYCHYDHYASASTVLPAFGVDAWGQGTTVTVSS
VL: DIVMTQSPLSLPVTPGEPASISCQASQELVHMNRNTYLHWYQQKPGQAPRLLIYKVSNRFPGVPDRFSGSGSGTDFTLKISRVEAEDVGVYYCAQGTSVPFTFGQGTKLEIK
B6: dBBDu183H H96D / dBBDu072L (antibody, name in Kabat numbering, V domains shown)
VH: QVQLVESGGGLVQPGRSLRLSCAASGFTFSNAWMHWVRQAPGKGLEWVAQIKDKGNAYAAYYAPSVKGRFTISRDDSKNSIYLQMNSLKTEDTAVYYCHYVDYASASTVLPAFGVDAWGQGTTVTVSS
VL: DIVMTQSPLSLPVTPGEPASISCQASQELVHMNRNTYLHWYQQKPGQAPRLLIYKVSNRFPGVPDRFSGSGSGTDFTLKISRVEAEDVGVYYCAQGTSVPFTFGQGTKLEIK
B7: dBBDu183H Y97D / dBBDu072L (antibody, name in Kabat numbering, V domains shown)
VH: QVQLVESGGGLVQPGRSLRLSCAASGFTFSNAWMHWVRQAPGKGLEWVAQIKDKGNAYAAYYAPSVKGRFTISRDDSKNSIYLQMNSLKTEDTAVYYCHYVHDASASTVLPAFGVDAWGQGTTVTVSS
VL: DIVMTQSPLSLPVTPGEPASISCQASQELVHMNRNTYLHWYQQKPGQAPRLLIYKVSNRFPGVPDRFSGSGSGTDFTLKISRVEAEDVGVYYCAQGTSVPFTFGQGTKLEIK
B8: dBBDu183H A98D / dBBDu072L (antibody, name in Kabat numbering, V domains shown)
VH: QVQLVESGGGLVQPGRSLRLSCAASGFTFSNAWMHWVRQAPGKGLEWVAQIKDKGNAYAAYYAPSVKGRFTISRDDSKNSIYLQMNSLKTEDTAVYYCHYVHYDSASTVLPAFGVDAWGQGTTVTVSS
VL: DIVMTQSPLSLPVTPGEPASISCQASQELVHMNRNTYLHWYQQKPGQAPRLLIYKVSNRFPGVPDRFSGSGSGTDFTLKISRVEAEDVGVYYCAQGTSVPFTFGQGTKLEIK
B9: dBBDu183H S99D / dBBDu072L (antibody, name in Kabat numbering, V domains shown)
VH: QVQLVESGGGLVQPGRSLRLSCAASGFTFSNAWMHWVRQAPGKGLEWVAQIKDKGNAYAAYYAPSVKGRFTISRDDSKNSIYLQMNSLKTEDTAVYYCHYVHYADASTVLPAFGVDAWGQGTTVTVSS
VL: DIVMTQSPLSLPVTPGEPASISCQASQELVHMNRNTYLHWYQQKPGQAPRLLIYKVSNRFPGVPDRFSGSGSGTDFTLKISRVEAEDVGVYYCAQGTSVPFTFGQGTKLEIK
B10: dBBDu183H A100D / dBBDu072L (antibody, name in Kabat numbering, V domains shown)
VH: QVQLVESGGGLVQPGRSLRLSCAASGFTFSNAWMHWVRQAPGKGLEWVAQIKDKGNAYAAYYAPSVKGRFTISRDDSKNSIYLQMNSLKTEDTAVYYCHYVHYASDSTVLPAFGVDAWGQGTTVTVSS
VL: DIVMTQSPLSLPVTPGEPASISCQASQELVHMNRNTYLHWYQQKPGQAPRLLIYKVSNRFPGVPDRFSGSGSGTDFTLKISRVEAEDVGVYYCAQGTSVPFTFGQGTKLEIK
B11: dBBDu183H S100aD / dBBDu072L (antibody, name in Kabat numbering, V domains shown)
VH: QVQLVESGGGLVQPGRSLRLSCAASGFTFSNAWMHWVRQAPGKGLEWVAQIKDKGNAYAAYYAPSVKGRFTISRDDSKNSIYLQMNSLKTEDTAVYYCHYVHYASADTVLPAFGVDAWGQGTTVTVSS
VL: DIVMTQSPLSLPVTPGEPASISCQASQELVHMNRNTYLHWYQQKPGQAPRLLIYKVSNRFPGVPDRFSGSGSGTDFTLKISRVEAEDVGVYYCAQGTSVPFTFGQGTKLEIK
B12: dBBDu183H T100bD / dBBDu072L (antibody, name in Kabat numbering, V domains shown)
VH: QVQLVESGGGLVQPGRSLRLSCAASGFTFSNAWMHWVRQAPGKGLEWVAQIKDKGNAYAAYYAPSVKGRFTISRDDSKNSIYLQMNSLKTEDTAVYYCHYVHYASASDVLPAFGVDAWGQGTTVTVSS
VL: DIVMTQSPLSLPVTPGEPASISCQASQELVHMNRNTYLHWYQQKPGQAPRLLIYKVSNRFPGVPDRFSGSGSGTDFTLKISRVEAEDVGVYYCAQGTSVPFTFGQGTKLEIK
B13: dBBDu183H V100cD / dBBDu072L (antibody, name in Kabat numbering, V domains shown)
VH: QVQLVESGGGLVQPGRSLRLSCAASGFTFSNAWMHWVRQAPGKGLEWVAQIKDKGNAYAAYYAPSVKGRFTISRDDSKNSIYLQMNSLKTEDTAVYYCHYVHYASASTDLPAFGVDAWGQGTTVTVSS
VL: DIVMTQSPLSLPVTPGEPASISCQASQELVHMNRNTYLHWYQQKPGQAPRLLIYKVSNRFPGVPDRFSGSGSGTDFTLKISRVEAEDVGVYYCAQGTSVPFTFGQGTKLEIK
B14: dBBDu183H L100dD / dBBDu072L (antibody, name in Kabat numbering, V domains shown)
VH: QVQLVESGGGLVQPGRSLRLSCAASGFTFSNAWMHWVRQAPGKGLEWVAQIKDKGNAYAAYYAPSVKGRFTISRDDSKNSIYLQMNSLKTEDTAVYYCHYVHYASASTVDPAFGVDAWGQGTTVTVSS
VL: DIVMTQSPLSLPVTPGEPASISCQASQELVHMNRNTYLHWYQQKPGQAPRLLIYKVSNRFPGVPDRFSGSGSGTDFTLKISRVEAEDVGVYYCAQGTSVPFTFGQGTKLEIK
B15: dBBDu183H A100fD / dBBDu072L (antibody, name in Kabat numbering, V domains shown)
VH: QVQLVESGGGLVQPGRSLRLSCAASGFTFSNAWMHWVRQAPGKGLEWVAQIKDKGNAYAAYYAPSVKGRFTISRDDSKNSIYLQMNSLKTEDTAVYYCHYVHYASASTVLPDFGVDAWGQGTTVTVSS
VL: DIVMTQSPLSLPVTPGEPASISCQASQELVHMNRNTYLHWYQQKPGQAPRLLIYKVSNRFPGVPDRFSGSGSGTDFTLKISRVEAEDVGVYYCAQGTSVPFTFGQGTKLEIK
B16: dBBDu183H F100gD / dBBDu072L (antibody, name in Kabat numbering, V domains shown)
VH: QVQLVESGGGLVQPGRSLRLSCAASGFTFSNAWMHWVRQAPGKGLEWVAQIKDKGNAYAAYYAPSVKGRFTISRDDSKNSIYLQMNSLKTEDTAVYYCHYVHYASASTVLPADGVDAWGQGTTVTVSS
VL: DIVMTQSPLSLPVTPGEPASISCQASQELVHMNRNTYLHWYQQKPGQAPRLLIYKVSNRFPGVPDRFSGSGSGTDFTLKISRVEAEDVGVYYCAQGTSVPFTFGQGTKLEIK
B17: dBBDu183H G100hD / dBBDu072L (antibody, name in Kabat numbering, V domains shown)
VH: QVQLVESGGGLVQPGRSLRLSCAASGFTFSNAWMHWVRQAPGKGLEWVAQIKDKGNAYAAYYAPSVKGRFTISRDDSKNSIYLQMNSLKTEDTAVYYCHYVHYASASTVLPAFDVDAWGQGTTVTVSS
VL: DIVMTQSPLSLPVTPGEPASISCQASQELVHMNRNTYLHWYQQKPGQAPRLLIYKVSNRFPGVPDRFSGSGSGTDFTLKISRVEAEDVGVYYCAQGTSVPFTFGQGTKLEIK
B18: dBBDu183H V100iD / dBBDu072L (antibody, name in Kabat numbering, V domains shown)
VH: QVQLVESGGGLVQPGRSLRLSCAASGFTFSNAWMHWVRQAPGKGLEWVAQIKDKGNAYAAYYAPSVKGRFTISRDDSKNSIYLQMNSLKTEDTAVYYCHYVHYASASTVLPAFGDDAWGQGTTVTVSS
VL: DIVMTQSPLSLPVTPGEPASISCQASQELVHMNRNTYLHWYQQKPGQAPRLLIYKVSNRFPGVPDRFSGSGSGTDFTLKISRVEAEDVGVYYCAQGTSVPFTFGQGTKLEIK
B19: dBBDu183H A102D / dBBDu072L (antibody, name in Kabat numbering, V domains shown)
VH: QVQLVESGGGLVQPGRSLRLSCAASGFTFSNAWMHWVRQAPGKGLEWVAQIKDKGNAYAAYYAPSVKGRFTISRDDSKNSIYLQMNSLKTEDTAVYYCHYVHYASASTVLPAFGVDDWGQGTTVTVSS
VL: DIVMTQSPLSLPVTPGEPASISCQASQELVHMNRNTYLHWYQQKPGQAPRLLIYKVSNRFPGVPDRFSGSGSGTDFTLKISRVEAEDVGVYYCAQGTSVPFTFGQGTKLEIK
B20: dBBDu183H H93E / dBBDu072L (antibody, name in Kabat numbering, V domains shown)
VH: QVQLVESGGGLVQPGRSLRLSCAASGFTFSNAWMHWVRQAPGKGLEWVAQIKDKGNAYAAYYAPSVKGRFTISRDDSKNSIYLQMNSLKTEDTAVYYCEYVHYASASTVLPAFGVDAWGQGTTVTVSS
VL: DIVMTQSPLSLPVTPGEPASISCQASQELVHMNRNTYLHWYQQKPGQAPRLLIYKVSNRFPGVPDRFSGSGSGTDFTLKISRVEAEDVGVYYCAQGTSVPFTFGQGTKLEIK
B21: dBBDu183H Y94E / dBBDu072L (antibody, name in Kabat numbering, V domains shown)
VH: QVQLVESGGGLVQPGRSLRLSCAASGFTFSNAWMHWVRQAPGKGLEWVAQIKDKGNAYAAYYAPSVKGRFTISRDDSKNSIYLQMNSLKTEDTAVYYCHEVHYASASTVLPAFGVDAWGQGTTVTVSS
VL: DIVMTQSPLSLPVTPGEPASISCQASQELVHMNRNTYLHWYQQKPGQAPRLLIYKVSNRFPGVPDRFSGSGSGTDFTLKISRVEAEDVGVYYCAQGTSVPFTFGQGTKLEIK

target: Human CD137 ECD (human); assay: SPR, vs parent H183/L072
Sequence (chain, as listed by the source limits assumed): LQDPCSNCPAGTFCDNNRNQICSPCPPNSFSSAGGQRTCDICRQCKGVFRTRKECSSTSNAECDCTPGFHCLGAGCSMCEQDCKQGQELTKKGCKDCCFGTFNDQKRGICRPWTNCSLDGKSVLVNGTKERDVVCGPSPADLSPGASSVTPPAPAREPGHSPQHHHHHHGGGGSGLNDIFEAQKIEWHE

Fold change of affinity, 0 fold:
B1
B2
B3
B4
B5
B6
B7
B8
B9
B10
B11
B12
B13
B14
B15
B16
B17
B18
B19
B20
B21
